B1: PTPRD (parent)
chain: ELDELLKEISRKRRSIRYGREVEL

Variants of: B1
Test: protein stability index of a GFP-peptide fusion (GPS, HEK-293T) (PSI 1-6); higher = more stable
Conditions: c terminus: a fixed tail appended
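Note: lentivirally expressed fusions sorted by FACS into six bins by GFP to DsRed ratio, PSI derived from sequencing read proportions per bin multiplied by bin number.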

Protein stability index, by site and new letter:
R11: L 3.04; P 3.04; V 3.18; Q 2.55; I 2.45; Y 2.62; E 3.19; A 2.01; W 2.3; S 2.49; D 4.06; N 2.34; M 2.15; C 2.94; H 2.45; T 3.21; K 1.84; G 2.01
E8: N 2.44; P 2.77; G 2.86; R 2.54; H 1.99; S 2.45; M 2.37; Y 1.88; F 2; D 2.92; Q 2.81; K 3.79; T 2.79
R17: S 2.44; F 1.63; V 2.27; L 2.55; I 2.46; W 1.85; H 2.06; P 2.97; G 2.19; D 3.33; C 2.34; M 2.12
R14: C 2.19; P 2.64; V 2.42; D 2.65; Q 2.55; F 1.96; G 3.16; H 2.92; I 1.99; Y 1.66; A 2.02; K 2.39; L 3.77
L6: V 3.8; D 4.29; K 3.92; T 3.92; S 3.98; Q 3.73; H 3.19; N 3.81; C 3.29; W 1.5; G 4.21; P 4.08
E4: Q 1.99; I 1.73; H 2.6; R 2.16; S 1.85; V 1.94; K 2.59; C 1.57; G 3.34; F 2.39; D 2.07; P 2.48; W 2.29; M 1.9
V22: K 2.34; F 2.22; S 2.79; E 3.18; C 2.29; H 2.88; Q 2.5; I 2.17; P 2.04; G 2.64; M 2.85; R 2.46; T 2.52; A 1.82; N 2.35; Y 2.27; L 2.14
L2: K 4.09; M 2.92; S 2.99; C 3.06; I 2.6; R 3.71; E 4.41; D 4.14; Q 4.26; T 3.38; H 4.32; N 4.2; Y 3.54; P 3.47; V 2.43
S10: D 2.87; E 2.84; A 2.44; Y 2.06; K 2.17; G 2.44; L 1.41; V 2.48; Q 2.2; P 3.01; R 2.48; W 1.48; C 3.15
S15: D 1.91; P 2.6; F 2.27; E 2.65; V 2.29; Y 2.65; Q 3.4; M 2.54; A 2.45; L 2.04; K 1.88; T 2.99
I16: Q 3.12; P 2.43; T 2.57; R 1.72; A 1.9; G 3.21; S 3.4; C 2.81; N 2.98; E 3.62; Y 1.75; F 1.81; M 2.54; L 2.42
I9: R 3.72; Q 4.18; C 2.54; P 3.81; S 3.62; M 2.64; A 3.14; V 2.61; D 3.98; Y 2.63; W 2.89; E 4.46; G 3.57; F 2.33

From the supplement of paper PMC10567573
